For test [1], the target named is Na+/K+ ATPase α-1 on mouse Lewis Lung LL/2 cancer cells (mouse) (UniProt Q8VDN2). The test can be described thus: flow cytometry, 5 µg/ml, EDTA-treated intact mouse LL/2 cells.
Test [2] shares this target. The test can be described thus: flow cytometry, 5 µg/ml, trypsin-treated intact mouse LL/2 cells. On the technique in general: Flow cytometry measures light scatter and fluorescence of single cells or particles in a stream.
For test [3] the target is unchanged. The test can be described thus: flow cytometry, 5 µg/ml, EDTA-treated permeabilized mouse LL/2 cells.

This is an account of results in patent US20210032364A1.

As for “mAb to Na+/K+ ATPase α-1 (Abcam, Cat. No. ab2826) (antibody)”, the % cells stained in test [1] amounted to 29.9%; in test [2], 20.5%; in test [3], 63.8%.
